According to patent US20110076730A1 (priority 2006, published 2011):
Like-named read-outs stand apart in the source and are kept apart here.

Columns and labels:
[1] = format: biochemical; conditions: read-out: Cofactor Km
[2] = format: biochemical; conditions: read-out: D-xylose Km
[3] = format: biochemical; conditions: pH 8.3
[4] = format: biochemical; conditions: read-out: L-arabinose Km

B1: Xdh-B. fungorum: D-xylose dehydrogenase (Xdh) from Burkholderia fungorum LB400, protein RBU11704 in the ERGO database (protein)
chain: MYLLSYPEQVDYPMSYAIYPSLSGKTVVITGGGSGIGAAMVEAFARQGARVFFLDVAEDDSLALQQSLSDAPHPPLFRRCDLRSVDAIHSAFAGIVEIAGPIEVLVNNAGNDDRHEVDAITPAYWDERMAVNLRHQFFCAQAAAAGMRKIGRGVILNLGSVSWHLALPNLAIYMSAKAGIEGLTRGLARDLGAAGIRVNCIIPGAVRTPRQMQLWQSPESEAKLVASQCLRLRIEPEHVARMALFLASDDASRCSGRDYFVDAGWYGE
modifications: Burkholderia fungorum LB400
notes: D-xylose dehydrogenase (Xdh) from Burkholderia fungorum LB400, protein RBU11704 in the ERGO database
[1]
  Km: 260 µM
[2]
  Km: 970 µM
[3]
  D-fructose, D-galactose, D-mannose, 2-deoxy-D-glucose, D-glucose-6-phosphate and D-ribose as substrates: not the substrates
  Oxidation of D-xylose, L-arabinose and D-glucose into corresponding sugar acid: could be oxidized
[4]
  Km: 43000 µM

B2: Xdh-C. crescentus: D-xylose dehydrogenase (Xdh) from Caulobacter crescentus CB15, protein RC001012 in the ERGO database (protein)
chain: MSSAIYPSLKGKRVVITGGGSGIGAGLTAGFARQGAEVIFLDIADEDSRALEAELAGSPIPPVYKRCDLMNLEAIKAVFAEIGDVDVLVNNAGNDDRHKLADVTGAYWDERINVNLRHMLFCTQAVAPGMKKRGGGAVINFGSISWHLGLEDLVLYETAKAGIEGMTRALARELGPDDIRVTCVVPGNVKTKRQEKWYTPEGEAQIVAAQCLKGRIVPENVAALVLFLASDDASLCTGHEYWIDAGWR
modifications: Caulobacter crescentus CB15
notes: D-xylose dehydrogenase (Xdh) from Caulobacter crescentus CB15, protein RC001012 in the ERGO database
[1]
  Km: 130 µM
[2]
  Km: 99 µM
[3]
  D-fructose, D-galactose, D-mannose, 2-deoxy-D-glucose, D-glucose-6-phosphate and D-ribose as substrates: not the substrates
  Oxidation of D-xylose, L-arabinose and D-glucose into corresponding sugar acid: could be oxidized
[4]
  Km: 34000 µM
